The numbers were not newly measured in article PMC11924945, which cites them from elsewhere.

In the data set the target is CD47 (Homo sapiens) (UniProt Q08722).
Sequence of CD47 (Homo sapiens) (Q08722 19-323): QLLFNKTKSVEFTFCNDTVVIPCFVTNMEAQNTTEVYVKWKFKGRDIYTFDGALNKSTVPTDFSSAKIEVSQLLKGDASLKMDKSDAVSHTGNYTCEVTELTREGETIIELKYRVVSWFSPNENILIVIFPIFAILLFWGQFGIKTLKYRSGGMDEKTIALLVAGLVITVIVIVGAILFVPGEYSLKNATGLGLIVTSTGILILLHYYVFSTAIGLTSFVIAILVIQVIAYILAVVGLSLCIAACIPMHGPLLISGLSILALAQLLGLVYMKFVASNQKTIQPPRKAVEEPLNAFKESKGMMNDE

Sequence of SIRPα allele 2 (P78324 31-373): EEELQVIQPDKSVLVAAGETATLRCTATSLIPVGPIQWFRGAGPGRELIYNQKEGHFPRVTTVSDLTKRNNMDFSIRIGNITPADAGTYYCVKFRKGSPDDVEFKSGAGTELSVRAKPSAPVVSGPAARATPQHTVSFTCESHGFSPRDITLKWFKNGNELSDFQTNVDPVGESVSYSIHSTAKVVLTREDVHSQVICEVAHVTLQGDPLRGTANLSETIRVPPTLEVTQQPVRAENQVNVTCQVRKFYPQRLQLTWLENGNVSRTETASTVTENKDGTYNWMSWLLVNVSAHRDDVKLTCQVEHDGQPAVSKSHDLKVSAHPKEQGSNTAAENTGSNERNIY

As usually defined, the Kd is the equilibrium constant for the complex coming apart. Regarding SIRPα allele 2 (from UniProt P78324), the Kd was 1000 nM.
